We go through two substances from publication PMC9256654, “Mechanistic basis for maintenance of CHG DNA methylation in plants” (Nature Communications, 2022).

In assay [1] the target is Zea mays ZMET2 (residues 130-912), core fragment harboring the CD, BAH and MTase domains (Zea mays) (UniProt Q9AXT8).
Assay [2] addresses A. thaliana CMT3 (residues 42-839) (A. thaliana) (UniProt Q94F88).
Assay [3] deals with Zea mays ZMET2 (residues 130-912), core fragment harboring the CD, BAH and MTase domains (Zea mays) (UniProt Q9AXT8). The source holds these as a separate data set.

Chain of Zea mays ZMET2 (residues 130-912), core fragment harboring the CD, BAH and MTase domains (Zea mays) (Q9AXT8 130-912): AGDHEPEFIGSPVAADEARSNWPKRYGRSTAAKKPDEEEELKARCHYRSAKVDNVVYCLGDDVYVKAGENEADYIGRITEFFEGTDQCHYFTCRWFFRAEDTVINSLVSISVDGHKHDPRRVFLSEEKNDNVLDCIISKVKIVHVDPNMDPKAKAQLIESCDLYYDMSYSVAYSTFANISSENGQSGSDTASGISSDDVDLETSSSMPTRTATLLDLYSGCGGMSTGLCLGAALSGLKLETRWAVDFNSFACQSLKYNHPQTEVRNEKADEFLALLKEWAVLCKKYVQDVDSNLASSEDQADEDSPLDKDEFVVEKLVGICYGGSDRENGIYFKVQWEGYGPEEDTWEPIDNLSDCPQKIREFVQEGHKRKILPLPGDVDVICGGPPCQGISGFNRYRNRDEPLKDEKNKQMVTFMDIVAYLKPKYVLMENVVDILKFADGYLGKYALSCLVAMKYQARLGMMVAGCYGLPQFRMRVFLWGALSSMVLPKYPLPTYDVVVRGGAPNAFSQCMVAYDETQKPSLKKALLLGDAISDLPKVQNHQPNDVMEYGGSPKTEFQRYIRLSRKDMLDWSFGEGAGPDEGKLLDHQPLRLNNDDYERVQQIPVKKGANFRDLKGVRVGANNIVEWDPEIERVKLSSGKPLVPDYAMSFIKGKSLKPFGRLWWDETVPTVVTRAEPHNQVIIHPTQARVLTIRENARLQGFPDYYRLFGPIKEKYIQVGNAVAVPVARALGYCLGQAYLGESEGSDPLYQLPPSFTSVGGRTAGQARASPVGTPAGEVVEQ
Chain of A. thaliana CMT3 (residues 42-839) (A. thaliana) (Q94F88 42-839): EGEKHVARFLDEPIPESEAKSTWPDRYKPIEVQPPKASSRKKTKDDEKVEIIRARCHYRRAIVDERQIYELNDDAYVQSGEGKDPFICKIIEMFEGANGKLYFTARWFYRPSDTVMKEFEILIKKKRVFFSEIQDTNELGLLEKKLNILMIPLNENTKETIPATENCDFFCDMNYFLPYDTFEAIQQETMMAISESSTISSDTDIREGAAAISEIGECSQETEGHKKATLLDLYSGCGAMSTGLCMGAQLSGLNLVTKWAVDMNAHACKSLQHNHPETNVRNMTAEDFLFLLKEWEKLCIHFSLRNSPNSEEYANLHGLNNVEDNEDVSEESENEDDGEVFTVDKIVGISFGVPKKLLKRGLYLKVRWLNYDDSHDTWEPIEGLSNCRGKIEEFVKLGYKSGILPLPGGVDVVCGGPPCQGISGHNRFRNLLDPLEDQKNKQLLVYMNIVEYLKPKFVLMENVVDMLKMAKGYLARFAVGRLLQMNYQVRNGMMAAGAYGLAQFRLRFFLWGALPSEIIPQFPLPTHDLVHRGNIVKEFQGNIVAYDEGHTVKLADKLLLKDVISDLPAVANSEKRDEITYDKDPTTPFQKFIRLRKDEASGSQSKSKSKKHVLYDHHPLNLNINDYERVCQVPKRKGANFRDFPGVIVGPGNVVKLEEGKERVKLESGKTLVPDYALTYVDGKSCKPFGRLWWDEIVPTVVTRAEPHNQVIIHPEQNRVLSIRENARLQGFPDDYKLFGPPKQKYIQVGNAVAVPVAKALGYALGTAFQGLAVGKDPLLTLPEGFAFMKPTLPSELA

In assay [1], “histone H3K9me2 peptide encompassing residues 1-32, followed by a C-terminal tyrosine (from UniProt P68431 2-33)” gave an in vitro DNA methylation activity of ZMET2 on hmCHG DNA, fold stimulation by the peptide of 15 fold and an in vitro DNA methylation activity of ZMET2 on unmodified CAG DNA, fold stimulation by the peptide of 6 fold.

Take “histone H3K9me2K18ac peptide residues 1-32, followed by a C-terminal tyrosine (from UniProt P68431 2-33)”: the in vitro DNA methylation activity of CMT3, reduction of the enzymatic stimulation against H3 (1–32)K9me2 in assay [2] was over 3 fold. Further, in assay [3], the in vitro DNA methylation activity of ZMET2, reduction of the enzymatic stimulation against H3 (1–32)K9me2 was over 3 fold.
